Here are results for one molecule from patent US20220177591A1 (TARGINTA, published 2022).

This assay has as its target T1, human integrin alpha10 on human cancer cell lines (BT549, PC-3, A549, MiaPaCa-2, PANC-1) (human, UniProt O75578 23-1167).
T1 construct: Endogenous protein on human cell lines; also called integrin alpha10 polypeptide; alpha10 subunit of integrin alpha10 beta1
T1 sequence: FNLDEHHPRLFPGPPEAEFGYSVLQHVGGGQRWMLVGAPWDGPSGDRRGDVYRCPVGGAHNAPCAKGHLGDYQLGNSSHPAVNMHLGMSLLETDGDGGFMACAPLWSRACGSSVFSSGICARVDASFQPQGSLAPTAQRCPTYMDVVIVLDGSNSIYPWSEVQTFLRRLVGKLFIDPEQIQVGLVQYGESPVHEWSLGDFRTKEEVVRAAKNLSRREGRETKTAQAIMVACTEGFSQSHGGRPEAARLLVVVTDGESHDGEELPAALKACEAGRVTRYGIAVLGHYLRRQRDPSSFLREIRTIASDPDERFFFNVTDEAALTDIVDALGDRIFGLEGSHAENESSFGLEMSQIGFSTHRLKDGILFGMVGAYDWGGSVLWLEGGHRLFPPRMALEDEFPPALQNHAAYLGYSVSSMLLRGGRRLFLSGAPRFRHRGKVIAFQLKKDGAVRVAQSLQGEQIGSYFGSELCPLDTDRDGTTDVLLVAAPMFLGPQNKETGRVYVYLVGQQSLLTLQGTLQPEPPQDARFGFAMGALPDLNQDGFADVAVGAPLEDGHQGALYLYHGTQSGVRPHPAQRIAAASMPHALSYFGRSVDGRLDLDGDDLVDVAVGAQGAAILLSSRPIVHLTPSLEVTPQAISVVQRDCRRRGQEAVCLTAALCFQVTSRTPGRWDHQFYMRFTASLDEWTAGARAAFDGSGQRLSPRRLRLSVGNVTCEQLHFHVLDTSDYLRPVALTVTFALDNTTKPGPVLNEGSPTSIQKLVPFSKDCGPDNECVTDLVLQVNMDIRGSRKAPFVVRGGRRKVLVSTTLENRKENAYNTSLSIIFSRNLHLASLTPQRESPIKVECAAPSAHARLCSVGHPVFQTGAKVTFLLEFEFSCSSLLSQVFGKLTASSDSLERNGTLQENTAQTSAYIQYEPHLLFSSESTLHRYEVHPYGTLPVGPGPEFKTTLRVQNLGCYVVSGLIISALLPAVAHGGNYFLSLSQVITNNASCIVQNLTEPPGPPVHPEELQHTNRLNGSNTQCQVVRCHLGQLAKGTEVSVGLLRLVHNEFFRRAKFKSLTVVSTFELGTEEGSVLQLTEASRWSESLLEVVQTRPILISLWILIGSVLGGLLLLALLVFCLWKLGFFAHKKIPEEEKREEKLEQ
Kind of assay: flow cytometry competition on BT549 cells. Here is the method:
The binding competition assay of the antibody mouse monoclonal antibody mAbα10 and the human monoclonal antibody Th101 was performed in integrin alpha10 overexpressing C2C12α10 cells and triple-negative breast cancer BT549 cells. The cells were incubated with single or mixed antibodies at the indicated concentrations (μg/ml) for 30 min followed by two washed, and then stained with secondary antibodies for 30 min. Donkey anti-human Alexa 488 was used as a secondary antibody to the human monoclonal antibody Th101. Donkey anti-mouse Alexa 647 was used as a secondary antibody to the mouse monoclonal antibody mAbα10. The binding of the antibodies was analyzed by flow cytometry, wherein the fluorescence signal of the secondary antibodies were detected.
For orientation: A flow cytometer gives signals particle by particle.

B1: human monoclonal anti-integrin alpha10 antibody Th101 (antibody, V domains shown)
VH: EVQLLESGGGLVQPGGSLRLSCAASGFTFSDYGMNWVRQAPGKGLEWVAVISYDGSNKYYADSVKGRFTISRDNSKNTLYLQMNSLRAEDTAVYYCARGGNWGVFDYWGQGTLVTVSS
VL: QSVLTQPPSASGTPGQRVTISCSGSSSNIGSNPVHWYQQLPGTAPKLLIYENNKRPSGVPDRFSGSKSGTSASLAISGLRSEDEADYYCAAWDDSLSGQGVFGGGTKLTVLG
notes: It is a human monoclonal antibody detected with an anti-human secondary; Its negative control Th301 is human IgG1 VH/Lambda
In the case of B1, the binding result is given as “binds”.
